Laboratory results: publication PMC9046217, “L-tyrosine-bound ThiH structure reveals C–C bond break differences within radical SAM aromatic amino acid lyases” (Nature Communications, 2022)

Legend:
[1] = molecular target: 2-iminoacetate synthase ThiH from Thermosinus carboxydivorans (Thermosinus carboxydivorans); test: SEC; preparative gel filtration, HiLoad 16/600 S200 prep-grade column, buffer B (50 mM Tris pH 8, 100 mM NaCl), anaerobic
[2] = molecular target: T1, TcThiH (2-iminoacetate synthase ThiH) (Thermosinus carboxydivorans, UniProt A1HPQ5); test: X-ray crystal structure, […] Å; format: binding; conditions: with L-tyrosine, 5'-deoxyadenosine; bound to the [4Fe-4S] cluster; pH 6.5, anaerobic; SAM cleavage product mimic
T1 construct: gene TcarDRAFT_1903; full length, N-terminal Strep-tag kept (MWSHPQFEKA-SGTFYDVIEDYRHFDF...YKDWQAL, 377 residues printed; printed DNA encodes a His6 tag instead); E. coli BL21(DE3) with isc operon and metK; [4Fe-4S] reconstituted; monomer
T1 sequence (A1HPQ5 entry or part of it): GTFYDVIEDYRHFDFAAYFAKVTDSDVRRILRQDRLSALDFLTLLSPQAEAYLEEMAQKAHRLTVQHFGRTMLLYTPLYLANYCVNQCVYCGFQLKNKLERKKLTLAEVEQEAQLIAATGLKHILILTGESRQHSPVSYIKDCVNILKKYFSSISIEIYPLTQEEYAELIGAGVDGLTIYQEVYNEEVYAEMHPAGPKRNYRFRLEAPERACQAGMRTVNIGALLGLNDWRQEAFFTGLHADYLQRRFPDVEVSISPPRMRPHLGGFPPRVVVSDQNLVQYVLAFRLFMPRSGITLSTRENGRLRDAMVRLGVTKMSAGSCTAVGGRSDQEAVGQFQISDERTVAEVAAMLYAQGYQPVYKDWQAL

stoichiometry N [1] | Molecule | X-ray crystal structure, 1.27 Å [2]
2 | 2-iminoacetate synthase ThiH from Thermosinus carboxydivorans (enzyme) | 
 | CSCC[C@H](N)C(=O)O [L-methionine] | L-methionine bound to the radical SAM [Fe4S4]-cluster and L-tyrosine (Fig. 2b)
